Results taken from the supplement of paper PMC10598134.
± gives the standard deviation.

Experiment: collision cross section of modified peptide (TIMS, N2, iRT-aligned); higher = larger / more extended gas-phase ion
In short: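 On a timsTOF Pro/HT (dda-PASEF, nitrogen, ~2.4 mbar), synthetic peptide pools were analysed after a 120-min nanoflow C18 separation at 60 °C and identified in MaxQuant. Three reference ions served for 1/K0 calibration, with run-wise alignment to the median iRT peptide deviation. Collision cross section comes from the Mason-Schamp equation, using the most abundant feature per charge state averaged over 1–3 technical replicates.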

[1] = charge state: 2, modification: Butyryl
[2] = charge state: 3, modification: Butyryl
[3] = charge state: 2, modification: Nitro (Y)
[4] = charge state: 2, modification: Formyl
[5] = charge state: 3, modification: Formyl
[6] = charge state: 2, modification: Trimethyl (K)
[7] = charge state: 3, modification: Trimethyl (K)
[8] = charge state: 2, modification: Acetyl (K)
[9] = charge state: 3, modification: Acetyl (K)
[10] = charge state: 2, modification: hydroxyisobutyryl
[11] = charge state: 3, modification: hydroxyisobutyryl
[12] = charge state: 3, modification: Dimethyl (K)
[13] = charge state: 2, modification: Dimethyl (K)
[14] = charge state: 2, modification: Phospho (Y)
[15] = charge state: 2, modification: Biotin
[16] = charge state: 2, modification: Hydroxyproline
[17] = charge state: 3, modification: Hydroxyproline
[18] = charge state: 2, modification: Crotonyl
[19] = charge state: 2, modification: Methyl (K)
[20] = charge state: 3, modification: Methyl (K)
[21] = charge state: 2, modification: Citrullination (R)
[22] = charge state: 3, modification: GlyGly (K)
[23] = charge state: 2, modification: Glutarylation
[24] = charge state: 2, modification: GlyGly (K)
[25] = charge state: 2, modification: Succinyl
[26] = charge state: 3, modification: Glutarylation
[27] = charge state: 3, modification: Crotonyl

GFALVGVGSEASSKK [_GFALVGVGSEASSK(Butyryl)K_]
collision cross section [1]: 447.9 ± 0.87 Å² | collision cross section [2]: 499.86 ± 2.6 Å²

THLAPYSDELR [_THLAPY(Nitro (Y))SDELR_]
collision cross section [3]: 377.13 ± 2.5 Å² | collision cross section (charge state: 3, modification: Nitro (Y)): 453.98 ± 1.8 Å²

VGIDTPDIDIHGPEGKLK [_VGIDTPDIDIHGPEGK(Formyl)LK_]
collision cross section [4]: 485.77 ± 1.5 Å² | collision cross section [5]: 533.35 ± 1.3 Å²

SPDEAYAIAKK [_SPDEAYAIAK(Trimethyl (K))K_]
collision cross section [6]: 381.12 ± 1.2 Å² | collision cross section [7]: 449.09 Å²

SSFAYKDQNENR [_SSFAYK(Acetyl (K))DQNENR_]
collision cross section [8]: 398.41 ± 1.4 Å² | collision cross section [9]: 457.8 ± 0.27 Å²

VLDSGAPIKIPVGPETLGR [_VLDSGAPIK(hydroxyisobutyryl)IPVGPETLGR_]
collision cross section [10]: 472.45 ± 0.87 Å² | collision cross section [11]: 522.22 ± 1.2 Å²

VLDSGAPIKIPVGPETLGR [_VLDSGAPIK(Dimethyl (K))IPVGPETLGR_]
collision cross section [12]: 506.24 ± 0.56 Å²

VYIASSSGSTAIKK [_VYIASSSGSTAIK(Trimethyl (K))K_]
collision cross section [6]: 434.92 ± 0.58 Å² | collision cross section [7]: 501.36 ± 1.6 Å²

FVDSKVGEFSGANK [_FVDSK(Trimethyl (K))VGEFSGANK_]
collision cross section [6]: 432.92 Å²

IVFSGNLFQHQEDSKK [_IVFSGNLFQHQEDSK(Acetyl (K))K_]
collision cross section [8]: 495.37 ± 4.2 Å² | collision cross section [9]: 536.07 ± 1.1 Å²

YEQEHAAIQDKLFQVAK [_YEQEHAAIQDK(Dimethyl (K))LFQVAK_]
collision cross section [12]: 556.37 ± 0.79 Å²

FDDTNPEKEEAK [_FDDTNPEK(Dimethyl (K))EEAK_]
collision cross section [13]: 399.09 ± 0.55 Å² | collision cross section [12]: 487.33 ± 2.2 Å²

IGAEVYHHLK [_IGAEVY(Phospho (Y))HHLK_]
collision cross section [14]: 385.73 ± 0.77 Å²

DASTLQSQKAEGTGDAK [_DASTLQSQK(Biotin)AEGTGDAK_]
collision cross section [15]: 450.36 ± 0.63 Å² | collision cross section (charge state: 3, modification: Biotin): 520.24 ± 1.3 Å²

PGPKGEAGPTGPQGEPGVR [_P(Hydroxyproline)GPKGEAGPTGPQGEPGVR_]
collision cross section [16]: 432.55 ± 0.34 Å² | collision cross section [17]: 487.03 ± 3.2 Å²

PSVSTKLISK [_PSVSTK(Crotonyl)LISK_]
collision cross section [18]: 357.15 ± 0.8 Å²

ISSNFSSIIAEKLR [_ISSNFSSIIAEK(Methyl (K))LR_]
collision cross section [19]: 438.59 ± 1.7 Å² | collision cross section [20]: 507.3 ± 3.6 Å²

STGLELETPSLVPVKK [_STGLELETPSLVPVK(Biotin)K_]
collision cross section [15]: 465.71 Å²

SGFGKFER [_SGFGK(Trimethyl (K))FER_]
collision cross section [6]: 339.14 Å²

RFGGPVHHQAQR [_R(Citrullination (R))FGGPVHHQAQR_]
collision cross section [21]: 387.08 ± 0.89 Å² | collision cross section (charge state: 3, modification: Citrullination (R)): 477.19 ± 0.94 Å²

ASNAAVKLAESK [_ASNAAVK(Dimethyl (K))LAESK_]
collision cross section [13]: 387.86 ± 0.56 Å² | collision cross section [12]: 452.98 ± 1.6 Å²

TPNLYIYSKK [_TPNLYIYSK(GlyGly (K))K_]
collision cross section [22]: 446.34 ± 1.1 Å²

SEASSEFAKK [_SEASSEFAK(hydroxyisobutyryl)K_]
collision cross section [10]: 356.42 ± 0.78 Å²

PSVGSQSNQAGQGKR [_PSVGSQSNQAGQGK(hydroxyisobutyryl)R_]
collision cross section [10]: 418.62 ± 0.53 Å² | collision cross section [11]: 477.11 ± 9.7 Å²

GSLEKGSPEDK [_GSLEK(Malonyl)GSPEDK_]
collision cross section (charge state: 2, modification: Malonyl): 365.48 ± 0.011 Å²

LGSPSGKTGTCR [_LGSPSGK(Gluratylation)TGTCR_]
collision cross section [23]: 369.43 ± 0.9 Å²

IPPTYQIR [_IPPTY(Nitro (Y))QIR_]
collision cross section [3]: 343.35 ± 0.72 Å²

TQAYQDQKPGTSGLR [_TQAYQDQK(Acetyl (K))PGTSGLR_]
collision cross section [8]: 429.11 ± 1.6 Å² | collision cross section [9]: 480.53 ± 6.7 Å²

LTSLNVKYNNDK [_LTSLNVK(GlyGly (K))YNNDK_]
collision cross section [24]: 424.54 ± 1.4 Å² | collision cross section [22]: 491.6 ± 1.1 Å²

PANEKATDDYHYEK [_PANEK(Formyl)ATDDYHYEK_]
collision cross section [4]: 435.25 ± 0.72 Å² | collision cross section [5]: 497.77 ± 2.4 Å²

ANLEKAQAELVGTADEATR [_ANLEK(Succinyl)AQAELVGTADEATR_]
collision cross section [25]: 479.08 ± 0.78 Å² | collision cross section (charge state: 3, modification: Succinyl): 580.29 ± 0.37 Å²

SGRGGNFGFGDSR [_SGR(Methyl (R))GGNFGFGDSR_]
collision cross section (charge state: 3, modification: Methyl (R)): 452.71 ± 3.1 Å²

AQVLAGGRGK [_AQVLAGGR(Methyl (R))GK_]
collision cross section (charge state: 2, modification: Methyl (R)): 352.61 ± 7.6 Å²

IPQEKCILQTDVK [_IPQEK(Butyryl)CILQTDVK_]
collision cross section [1]: 436.84 ± 0.53 Å² | collision cross section [2]: 487.47 ± 3.3 Å²

DDSFLGKLGGTLAR [_DDSFLGK(Formyl)LGGTLAR_]
collision cross section [4]: 408.49 ± 1.1 Å²

AQLSQYFDAVK [_AQLSQY(Nitro (Y))FDAVK_]
collision cross section [3]: 386.8 ± 0.8 Å²

TLQKQSVVYGGK [_TLQK(hydroxyisobutyryl)QSVVYGGK_]
collision cross section [10]: 398.93 ± 0.3 Å²

LDEKENLSAK [_LDEK(Crotonyl)ENLSAK_]
collision cross section [18]: 370.68 ± 0.26 Å²

GFALVGVGSEASSKK [_GFALVGVGSEASSK(GlyGly (K))K_]
collision cross section [24]: 452.76 ± 1.4 Å² | collision cross section [22]: 507.31 ± 14 Å²

GSLEKGSPEDK [_GSLEK(Butyryl)GSPEDK_]
collision cross section [1]: 371.66 ± 0.71 Å²

SGKFTQQDIDEAK [_SGK(Butyryl)FTQQDIDEAK_]
collision cross section [1]: 419.52 ± 1.7 Å²

LEEVTGKLQVAR [_LEEVTGK(Crotonyl)LQVAR_]
collision cross section [18]: 398.71 ± 0.79 Å²

VNALKNLQVK [_VNALK(Dimethyl (K))NLQVK_]
collision cross section [13]: 371.74 ± 0.57 Å² | collision cross section [12]: 421.1 Å²

SGFGKFER [_SGFGK(Succinyl)FER_]
collision cross section [25]: 336.55 ± 1.3 Å²

LDYSDFQIVK [_LDY(Phospho (Y))SDFQIVK_]
collision cross section [14]: 374.72 ± 0.79 Å²

ITLSKHQNVQLPR [_ITLSK(Formyl)HQNVQLPR_]
collision cross section [4]: 435.58 ± 0.72 Å² | collision cross section [5]: 504.15 ± 24 Å²

HELQANCYEEVKDR [_HELQANCYEEVK(Gluratylation)DR_]
collision cross section [26]: 487.76 ± 1.7 Å²

SGGRGVSVSSAR [_SGGR(Citrullination (R))GVSVSSAR_]
collision cross section [21]: 351.18 ± 4.8 Å²

DESFLGKLGGTLAR [_DESFLGK(Crotonyl)LGGTLAR_]
collision cross section [18]: 415.33 ± 0.28 Å² | collision cross section [27]: 492.01 Å²

IHNAENIQPGEQKYEYK [_IHNAENIQPGEQK(Malonyl)YEYK_]
collision cross section (charge state: 3, modification: Malonyl): 527.67 ± 2.8 Å²

VFSIISSEKELK [_VFSIISSEK(hydroxyisobutyryl)ELK_]
collision cross section [10]: 414.96 ± 0.83 Å²

TPNLYIYSKK [_TPNLYIYSK(hydroxyisobutyryl)K_]
collision cross section [10]: 388.68 ± 3 Å²

DHLSDKESK [_DHLSDK(Trimethyl (K))ESK_]
collision cross section [6]: 350.64 ± 1.1 Å² | collision cross section [7]: 401.61 ± 0.025 Å²

IHPEGPPLK [_IHP(Hydroxyproline)EGPPLK_]
collision cross section [16]: 331.8 ± 0.88 Å² | collision cross section [17]: 438.36 ± 0.43 Å²

LEKTIDDLEEK [_LEK(Biotin)TIDDLEEK_]
collision cross section [15]: 422.95 ± 1.4 Å²

GQDSTIAASEQQVAAR [_GQDS(HexNAc (ST))TIAASEQQVAAR_]
collision cross section (charge state: 2, modification: HexNAc (ST)): 438.46 ± 0.56 Å² | collision cross section (charge state: 3, modification: HexNAc (ST)): 532.78 ± 0.19 Å²

DTGEKLTVAENEAETK [_DTGEK(Formyl)LTVAENEAETK_]
collision cross section [4]: 439.79 ± 0.78 Å²

ITGKNQVTATK [_ITGK(Gluratylation)NQVTATK_]
collision cross section [23]: 369.78 ± 0.66 Å²

LLEQKTQESQK [_LLEQK(Methyl (K))TQESQK_]
collision cross section [19]: 404.61 ± 2.3 Å² | collision cross section [20]: 458.64 ± 4.9 Å²

FGTINIVHPKLGSYTK [_FGTINIVHPK(Dimethyl (K))LGSYTK_]
collision cross section [12]: 520.37 ± 1.2 Å²

GTISAPGKVVTAAAQAK [_GTISAPGK(Butyryl)VVTAAAQAK_]
collision cross section [1]: 447.93 ± 0.25 Å² | collision cross section [2]: 519.35 ± 2.9 Å²

VNVEAPDVNLEGLGGKLK [_VNVEAPDVNLEGLGGK(Gluratylation)LK_]
collision cross section [23]: 464.05 ± 2.1 Å² | collision cross section [26]: 550.01 Å²

SYHLQIVTK [_SY(Phospho (Y))HLQIVTK_]
collision cross section [14]: 357.29 ± 0.065 Å² | collision cross section (charge state: 3, modification: Phospho (Y)): 461.35 ± 0.12 Å²

ASDTSSETVFGKR [_ASDTSSETVFGK(Methyl (K))R_]
collision cross section [19]: 406.57 ± 1.3 Å² | collision cross section [20]: 477.14 ± 3.8 Å²

LQAAYAGDKADDIQK [_LQAAYAGDK(hydroxyisobutyryl)ADDIQK_]
collision cross section [10]: 440.97 ± 0.91 Å²

VNIGQGSHPQKVK [_VNIGQGSHPQK(Crotonyl)VK_]
collision cross section [18]: 430.6 ± 0.84 Å² | collision cross section [27]: 487.14 ± 1.3 Å²
